Data published in article PMC3531487, “An Allele of an Ancestral Transcription Factor Dependent on a Horizontally Acquired Gene Product” (PLoS Genetics, 2012).
Positions count from the first letter of the chain named.

B1: phosphorylated PmrA (G211) protein from S. enterica serovar Typhimurium (natural protein)
chain: MKILIVEDDTLLLQGLILAAQTEGYACDGVSTARAAEHSLESGHYSLMVLDLGLPDEDGLHFLTRIRQKKYTLPVLILTARDTLNDRITGLDVGADDYLVKPFALEELHARIRALLRRHNNQGESELTVGNLTLNIGRHQAWRDGQELTLTPKEYALLSRLMLKAGSPVHREILYNDIYNWDNEPSTNTLEVHIHNLRDKVGKSRIRTVRGFGYMLVATEES
modifications: phosphorylated (PmrA-P; phospho-Asp, residue number not given)
notes: PmrA, response regulator of the PmrA/PmrB two-component system, S. enterica serovar Typhimurium 14028s; glycine at position 211; In gel filtration a mixture of monomer and dimer; probably the whole 222-residue protein; also called PmrA-P; PmrA-H6
B2: phosphorylated PmrA (E211) protein from S. enterica serovar Paratyphi B (natural protein)
chain: B1 chain with G211E
modifications: phosphorylated (PmrA-P; phospho-Asp, residue number not given)
notes: PmrA, response regulator of the PmrA/PmrB two-component system, natural allele of S. enterica serovar Paratyphi B (SPV) SARA46; differs from the S. typhimurium PmrA by a single amino acid, glutamate instead of glycine at position 211; also called PmrA-H6

Biological target: the molecule itself
Experiment: SEC; analytical gel filtration; PmrA (50 µM) phosphorylated with pGEX-PmrBc T156R beads, 100 µl applied individually to Superdex 200 10/300 GL at 4°C in 1× TBS/1 mM MgCl2/1 mM DTT/10% glycerol, 0.5 ml/min, A280; monomer to dimer

| Protein | Dimer: Monomer (ratio of peak heights, A280) | stoichiometry N |
| --- | --- | --- |
| B1 | 0.29 | 2 |
| B2 | 0.11 | 2 |
